According to patent publication CN111956606A (JIANGSU QUANXIN BIOMEDICAL CO LTD, dated 2020):

T1: 人白介素23(Human interleukin 23，hIL-23) (human, UniProt Q9NPF7 20-189; P29460 23-328)
T1 construct: The signal peptides were probably absent from the protein in the assay; also called 人IL-23
T1 sequence 1: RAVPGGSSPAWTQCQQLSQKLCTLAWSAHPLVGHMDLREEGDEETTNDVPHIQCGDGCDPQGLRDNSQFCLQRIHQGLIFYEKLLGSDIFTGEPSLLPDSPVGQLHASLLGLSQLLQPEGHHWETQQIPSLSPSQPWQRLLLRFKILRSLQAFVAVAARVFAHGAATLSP
T1 sequence 2: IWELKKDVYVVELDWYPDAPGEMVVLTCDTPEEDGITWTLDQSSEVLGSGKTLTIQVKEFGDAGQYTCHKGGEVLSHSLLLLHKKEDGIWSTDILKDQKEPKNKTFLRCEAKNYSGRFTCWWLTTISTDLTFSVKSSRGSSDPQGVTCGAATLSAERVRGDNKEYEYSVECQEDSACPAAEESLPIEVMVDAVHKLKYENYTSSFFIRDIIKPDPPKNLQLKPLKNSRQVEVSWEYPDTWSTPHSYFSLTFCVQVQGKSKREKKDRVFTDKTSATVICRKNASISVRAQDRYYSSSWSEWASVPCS


Columns and labels:
[1] = molecular target: T1, 人白介素23(Human interleukin 23，hIL-23); assay: SPR, Biacore T200, antibody captured on Protein A chip, IL-23 as analyte, 25℃, 1:1 model
[2] = molecular target: T1, 人白介素23(Human interleukin 23，hIL-23); assay: cell-based or functional assay

Row | Binder | Kd [1] [nM] | koff [1] [s⁻¹] | kon [1] [M⁻¹ s⁻¹] | 抑制IL-23诱导的HEK Blue TM IL-23细胞中STAT3磷酸化活性 IC50 [2] [ng/mL] | 抑制IL-23诱导的人NK细胞释放IFN-γ活性 IC50 [2] [ng/mL] | 抑制IL-23诱导的小鼠脾脏细胞释放IL-17A活性 IC50 [2] [ng/mL]
1 | 抗人白介素23单克隆抗体QX004N(HZD90-32) (antibody, human IgG1, kappa, V domains shown) VH: EVQLVESGGGLVQPGGSLRLSCAASGFSLSNHEMSWVRQAPGKGLEWIGIITTSDTTYYATWAKGRFTISRDNSKNTLYLQMNSLRAEDTAVYYCARVDIVLLSVTSRIWGQGTLVTVSS VL: DVVMTQSPSSLSASVGDRVTITCQASQSVSTYLSWYQQKPGKAPKLLIYGASNLESGVPSRFSGSGSGTDFTLTISSLQPEDFATYYCQSGYVFAGLTFGGGTKVEIKR | 0.101 | 3.5e-05 | 366000 | 3.21 | 10.4 | 11.7
2 | Risankizumab (antibody, V domains shown) VH: QVQLVQSGAEVKKPGSSVKVSCKASGYTFTDQTIHWMRQAPGQGLEWIGYIYPRDDSPKYNENFKGKVTITADKSTSTAYMELSSLRSEDTAVYYCAIPDRSGYAWFIYWGQGTLVTVSS VL: DIQMTQSPSSLSASVGDRVTITCKASRDVAIAVAWYQQKPGKVPKLLIYWASTRHTGVPSRFSGSGSRTDFTLTISSLQPEDVADYFCHQYSSYPFTFGSGTKLEIKR | 0.052 | 3.7e-05 | 706000 | 3.51 | 11.1 | 8.43
3 | Guselkumab (antibody, V domains shown) VH: EVQLVQSGAEVKKPGESLKISCKGSGYSFSNYWIGWVRQMPGKGLEWMGIIDPSNSYTRYSPSFQGQVTISADKSISTAYLQWSSLKASDTAMYYCARWYYKPFDVWGQGTLVTVSS VL: QSVLTQPPSVSGAPGQRVTISCTGSSSNIGSGYDVHWYQQLPGTAPKLLIYGNSKRPSGVPDRFSGSKSGTSASLAITGLQSEDEADYYCASWTDGLSLVVFGGGTKLTVLG | 0.063 | – | – | – | 16.8 | 13.5
